The numbers were not newly measured in article PMC6653659, which cites them from elsewhere.

This series deals with glucocorticoid receptor LBD (Homo sapiens) (UniProt P04150).

As for “glucocorticoid receptor LBD (from UniProt P04150)”, the dissociation constant (Kd) is 1.5 µM.
